According to PMC12482190, “Characterization of PPE19 as a novel mediator of Mycobacterium tuberculosis-macrophage interactions” (mSphere, 2025):

Target: T1, PPE19-GST-bio (biotinylated PPE19 with an N-terminal GST tag) (Mycobacterium tuberculosis H37Rv, UniProt P9WI25 1-396)
T1 construct: also called biotinylated PPE19-GST; not shown: GST, N-terminal, kept
T1 sequence: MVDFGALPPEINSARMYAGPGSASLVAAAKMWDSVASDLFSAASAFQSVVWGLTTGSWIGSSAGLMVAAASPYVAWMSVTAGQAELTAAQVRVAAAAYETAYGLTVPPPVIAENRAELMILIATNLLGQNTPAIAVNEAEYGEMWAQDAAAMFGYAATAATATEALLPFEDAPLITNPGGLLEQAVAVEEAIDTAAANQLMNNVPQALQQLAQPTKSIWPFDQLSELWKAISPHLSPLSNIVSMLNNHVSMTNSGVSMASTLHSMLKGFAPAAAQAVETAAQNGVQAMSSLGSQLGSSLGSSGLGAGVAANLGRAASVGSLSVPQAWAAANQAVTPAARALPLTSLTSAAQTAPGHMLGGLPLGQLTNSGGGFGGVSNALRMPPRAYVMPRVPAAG
Experiment: AlphaScreen or HTRF
Settings: both partners purified

B1: PE13-His (PE13 with a polyhistidine affinity tag) (natural protein)
chain: MSFVMAYPEMLAAAADTLQSIGATTVASNAAAAAPTTGVVPPAADEVSALTAAHFAAHAAMYQSVSARAAAIHDQFVATLASSASSYAATEVANAAAAS
binding result: binds
